Laboratory results reported in article PMC5915679.

Tests used:
[1] = target: hGW182 ABD (455–841) with motif-2 and the hook deleted (human) (UniProt Q8NDV7); assay: SEC
[2] = target: hGW182 ABD (455–841) with motif-1 and motif-2 deleted (human) (UniProt Q8NDV7); assay: SEC
[3] = target: hGW182 ABD (455–841) with the hook deleted (human) (UniProt Q8NDV7); assay: SEC
[4] = target: hGW182 ABD (455–841) with motif-1 and the hook deleted (human) (UniProt Q8NDV7); assay: SEC
[5] = target: hGW182 ABD (455–841) with motif-1 deleted (human) (UniProt Q8NDV7); assay: SEC
[6] = target: hGW182 ABD (455–841), tandem tryptophans of motif-1 and the hook mutated to alanine (human) (UniProt Q8NDV7); assay: pull-down
[7] = target: hGW182 ABD (455–841), tandem tryptophans of motif-2 and the hook mutated to alanine (human) (UniProt Q8NDV7); assay: pull-down

human Argonaute-2 (from UniProt Q9UKV8 1-859) (natural protein)
stoichiometry N [1]: 1
stoichiometry N [2]: 1
stoichiometry N [3]: 2
stoichiometry N [4]: 1
stoichiometry N [5]: 2
percent reduction of binding against the wild-type ABD [6]: < 10%
percent reduction of binding against the wild-type ABD [7]: < 10%
